Measurements: patent publication US20220275088A1 (published 2022)

What was measured:
Cyno PD1 = experiment: flow cytometry
[1] = biological target: human PD-1 on cells (transfected Expi293 cells, PHA-cultured T cells, cells of the Promega PD1-PDL1 bioassay, … (UniProt Q15116 25-288)); experiment: flow cytometry
[2] = biological target: T1, soluble PD-1 (biotinylated PD-1; expi293 expressed soluble PD1-avi) (UniProt Q15116 25-170, biotinylated (Avidity's biotinylation kit, avi tag) where loaded on SA sensors or used to stain yeast); experiment: ELISA; variable antigen coating
[3] = biological target: T1, soluble PD-1 (biotinylated PD-1; …); experiment: ELISA; constant antigen coating
[4] = biological target: T1, soluble PD-1 (biotinylated PD-1; …); experiment: yeast display flow cytometry

T1 sequence (Q15116 25-170): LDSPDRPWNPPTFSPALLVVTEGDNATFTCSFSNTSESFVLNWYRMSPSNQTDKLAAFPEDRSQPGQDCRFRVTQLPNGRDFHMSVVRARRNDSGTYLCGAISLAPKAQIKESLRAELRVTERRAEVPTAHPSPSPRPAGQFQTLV
Chain of human PD-1 on cells (transfected Expi293 cells, PHA-cultured T cells, cells of the Promega PD1-PDL1 bioassay, … (Q15116 25-288): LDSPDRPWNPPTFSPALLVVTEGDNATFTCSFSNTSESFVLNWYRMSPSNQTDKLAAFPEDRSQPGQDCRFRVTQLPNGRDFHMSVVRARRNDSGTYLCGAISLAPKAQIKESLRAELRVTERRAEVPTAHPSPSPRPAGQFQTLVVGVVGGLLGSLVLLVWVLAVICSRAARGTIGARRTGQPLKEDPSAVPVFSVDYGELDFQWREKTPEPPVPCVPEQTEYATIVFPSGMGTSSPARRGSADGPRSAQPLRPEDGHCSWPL

B1: P4#B3 (Fc fusion)
VH: QVQLVQSGGGLVQPGRSLRLSCAASGFTFDDYAMHWVRQAPGKGLEWVSGISWNSGSIGYADSVKGRFTVSRDNAKNSLYLQMNSLRAEDTAVYYCASDYGDKYYYYGMDVWGKGTTVTVSS
VL: QPGLTQPPSASGTPGQRVTISCSGSSSNIGSNTVNWYQQFPGKAPKLLIFNDNQRPSGVPDRFSASKSGTSASLAISGLQSEDEADYYCAAWDGGLNGRGVFGGGTKLTVL
EC50 (Cyno PD1): 0.072 µg/mL

B2: P4-B3 minibody (scFv-Fc) (Fc fusion)
VH: QVQLVQSGGGLVQPGRSLRLSCAASGFTFDDYAMHWVRQAPGKGLEWVSGISWNSGSIGYADSVKGRFTVSRDNAKNSLYLQMNSLRAEDTAVYYCASDYGDKYYYYGMDVWGKGTTVTVSS
VL: QPGLTQPPSASGTPGQRVTISCSGSSSNIGSNTVNWYQQFPGKAPKLLIFNDNQRPSGVPDRFSASKSGTSASLAISGLQSEDEADYYCAAWDGGLNGRGVFGGGTKLTVL
EC50 [1]: 0.097 µg/mL

B3: P4-B3 IgG1 wild type monomer (antibody, V domains shown)
VH: QVQLVQSGGGLVQPGRSLRLSCAASGFTFDDYAMHWVRQAPGKGLEWVSGISWNSGSIGYADSVKGRFTVSRDNAKNSLYLQMNSLRAEDTAVYYCASDYGDKYYYYGMDVWGKGTTVTVSS
VL: QPGLTQPPSASGTPGQRVTISCSGSSSNIGSNTVNWYQQFPGKAPKLLIFNDNQRPSGVPDRFSASKSGTSASLAISGLQSEDEADYYCAAWDGGLNGRGVFGGGTKLTVLG
EC50 [2]: 0.514 µg/mL
EC50 [3]: 0.0407 µg/mL

B4: P4-B3 scFv (scFv, V domains shown)
VH: QVQLVQSGGGLVQPGRSLRLSCAASGFTFDDYAMHWVRQAPGKGLEWVSGISWNSGSIGYADSVKGRFTVSRDNAKNSLYLQMNSLRAEDTAVYYCASDYGDKYYYYGMDVWGKGTTVTVSS
VL: QPGLTQPPSASGTPGQRVTISCSGSSSNIGSNTVNWYQQFPGKAPKLLIFNDNQRPSGVPDRFSASKSGTSASLAISGLQSEDEADYYCAAWDGGLNGRGVFGGGTKLTVL
EC50 [4]: 101 nM
